The target of assay [1] is T1, C-terminal biotinylated human Hepcidin-25 (human, not fully specified; biotinylated via a Lysine residue coupled to the C-terminus via a Mini-PEG linker).
T1 construct: Captured on plates via Neutravidin in the ELISAs; also called C-terminal biotinylated hHepcidin; C-terminal biotinylated hepcidin (Bachem AG)
T1 peptide: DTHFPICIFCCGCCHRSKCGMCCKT
Description: direct ELISA, hepcidin captured via Neutravidin. As for the experimental part:
A “direct” ELISA was performed to verify the binding affinity and specificity of the selected Lcn2 muteins. Therefore, a constant concentration of 1 μg/ml C-terminal biotinylated hepcidin (Bachem AG, CH) was captured on the surface of a polystyrol plate (Greiner, GE) via Neutravidin (Thermo Scientific, 5 μg/ml). Two step dilution series of purified Lcn2 muteins were incubated with the captured hepcidin […] at room temperature and detected either via the Strep-tag II using a rabbit anti-strep-tag II polyconal antibody (GenScript, USA) or by using a scaffold-specific polyclonal rabbit antibody. In both cases an anti rabbit IgG-HRP conjugate (Abcam, UK) was employed as secondary detection antibody.
On the technique in general: In an ELISA, binding on a coated surface is turned into a signal by an enzyme label.

Assay [2] concerns the target T2, synthetic non-modified human Hepcidin-25 (human, not fully specified).
T2 construct: also called hHepcidin-25; non-biotinylated human Hepcidin-25
T2 peptide: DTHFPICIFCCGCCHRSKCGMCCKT
Briefly: SPR (Biacore T100), mutein amine-coupled to CM5 chip, hepcidin as analyte, 1:1 model. As for the experimental part:
Lipocalin muteins were immobilized to a CM5 sensor chip using standard amine chemistry. The surface of the chip was activated using EDC and NHS. Subsequently, 20 μg/mL lipocalin mutein solutions in 10 mM sodium acetate pH 4.5 (60 μg/mL in 10 mM sodium acetate pH 4.0 for peglyted lipocalin mutein) were applied at a flow rate of 5 μL/min until a surface density of 500-700 resonance units (RU) for non-modified lipocalin muteins and of approximately 1600 RU for pegylated lipocalin with the sequence of SEQ ID NO: 13 was achieved. Residual activated groups were saturated with ethanolamine. The reference channels were treated with EDC/NHS following ethanolamine (blank immobilization). All reagents and materials were purchased from GE Healthcare.
Serial dilutions of human and cynomolgus Hepcidin-25 in running buffer (HBS-EP+, GE Healthcare, BR-1006-68) were applied to the prepared surface. The following parameters were used for the binding assay, contact time 60 s, dissociation time 180-360 s, flow rate 30 μL/min. All measurements were performed on a Biacore T100 instrument (GE Healthcare) at 25° C.
Data were evaluated with Biacore T100 Evaluation software (V 2.0.1). Double referencing was used. The 1:1 Binding model (Langmuir) was used to fit the raw data.

Assay [3] addresses T1, C-terminal biotinylated human …. Description: HT-screening ELISA, reverse ELISA and competition ELISA; T7- and Strep-tagged clone in crude lysate. As for the experimental part:
Lipocalin muteins were selected in a HT-screening ELISA. Therein, NGAL variants equipped with a T7 detection tag (Novagen) as well as a Strep-tag II affinity tag (IBA) were soluble expressed in a 96 well microtiter plate using the E. coli strain TG1/F with phNGAL 101. This vector corresponds to phNGAL 98 (SEQ ID NO: 31) with an N-terminal T7 tag consisting of 11 amino acids ([…]) (SEQ ID NO: 34, see also FIG. 4B). Lipocalin mutein expression was induced overnight at 22° C. at 700 rpm with anhydrotetracycline (0.2 μg/ml) at an OD₅₅₀ of 0.6. […] To minimize non-specific binding in the subsequent ELISA screen, the crude cell lysates were supplemented with 2% w/v BSA and 0.1% v/v Tween 20 and tested in ELISA for binding to human Hepcidin-25. Therefore, soluble C-terminal biotinylated human Hepcidin-25 was immobilized on wells of black Fluotrac 600 ELISA plates (Greiner; 384 well) with 1 μg/ml via capturing by Neutravidin (5 μg/ml, Thermo Scientific). Neutravidin, Streptavidin, 5 μg/ml each, and 3% milk were used as negative control. Plates were blocked with PBST/0.1 containing 2% w/v BSA, and subsequently incubated with the bacterial cell extract for 1 h at room temperature plates were washed five times and bound Lipocalin muteins were detected via an anti-T7 monoclonal antibody-HRP conjugate (Novagen), diluted 1:10.000 in PBST/O 1. Therefore, QuantaBlu™ (Pierce; 1:2 diluted in PBS/T 0.1%) was used as fluorogenic HRP substrate. After 45 min of signal development at room temperature fluorescence was excited at a wavelength of 320 nm (±12.5 nm) and measured at 430 nm (±17.5 nm) in a GENiosPlus plate reader (Tecan).
In a reverse ELISA approach soluble expressed muteins from the crude cell lysate were captured in ELISA plates via their T7-tag following incubation with varying amounts of C-terminal biotinylated hHepcidin to reach target-limiting conditions in order to differentiate the muteins by their affinity. Binding of the target was detected via Extravidin-HRP conjugate (Sigma). One could compete for mutein binding by the addition of 100 nM non-biotinylated human Hepcidin-25 indicating, that the muteins bind the non-modified hHepcidin-25 as well.

B1: lipocalin mutein of SEQ ID NO: 7 (designed binder)
chain: QDSTSDLIPAPPLSKVPLQQNFQDNQFHGKWYVVGLAGNRVLREDKDPQKMFATIYELKEDKSYNVTGVDFRTKKCLYSIGTFVPGSQPGEFTLGVIKSQPGWTSYLVRVVSTNYNQHAMVFFKTVWQNREVFWITLYGRTKELTSELKENFIRFSKSLGLPENHIVFPVPIDQCIDG
notes: Purified with C-terminal Strep-tag II; also called hNGAL mutein; Lcn2 mutein; not shown: C-terminal Strep-tag II encoded by phNGAL98
Turning to B1, the binding result in assay [1] was “binds”.

B2: lipocalin mutein of SEQ ID NO: 3 (designed binder)
chain: QDSTSDLIPAPPLSKVPLQQNFQDNQFHGKWYVVGVAGNGLLREDKDPLKMHATIYELKEDKSYNVTRVLFVRKKCRYYISTFVPGSQPGEFTLGRIKSEPGRTSFLVRVVSTNYNQHAMVFFKMVWQNREVFWITLYGRTKELTSELKENFIRFSKSLGLPENHIVFPVPIDQCIDG
notes: as for B1
B2: the binding result in assay [1] is given as “binds”.

B3: lipocalin mutein of SEQ ID NO: 1 (designed binder)
chain: QDSTSDLIPAPPLSKVPLQQNFQDNQFHGKWYVVGLAGNEVLREDKDPMKMWATIYELEEDKSYNVTIVMFLAKKCEYLFQTFVPGSQPGEFTLGDIKSSPGRTSGLVRVVSTNYNQHAMVFFKTVWQNREVFWITLYGRTKELTSELKENFIRFSKSLGLPENHIVFPVPIDQCIDG
notes: also called hNGAL mutein; Lcn2 mutein; not shown: C-terminal Strep-tag II encoded by phNGAL98
B3: the binding result in assay [1] and in assay [2] was “binds” each time.

B4: lipocalin mutein of SEQ ID NO: 8 (designed binder)
chain: QDSTSDLIPAPPLSKVPLQQNFQDNQFHGKWYVVGLAGNEVLREDKDPMKMWATIYELKEDKSYNVTIVMPLAEKCEYLFQTFVPGSQPGEFTLGGIKSGPGRTSGLVRVVSTNYNQHAMVFFKVVWQNREVFWVTLYGRTKELTSELKENFIRFSKSLGLPENHIVFPVPIDQCIDG
notes: as for B1
For the molecule B4, the binding result in assay [2] and in assay [3] was “binds” throughout.

B5: lipocalin mutein of SEQ ID NO: 12 (designed binder)
chain: QDSTSDLIPAPPLSKVPLQQNFQDNQFHGKWYVVGLAGNEVLREDKDPMKMWATIYELKEDKSYNVTIVMFLAEECEYLFQTFVPGSQPGEFTLGDIKSSPGRTSGLVRVVSTNYNQHAMVFFKVVWQNREVFWITLYGRTKELTSELKKNFIRFSKSLGLPENHIVFPVPIDQCIDG
notes: as for B1
Turning to B5, the binding result in assay [3] is “binds”.

B6: lipocalin mutein of SEQ ID NO: 9 (designed binder)
chain: QDSTSDLIPAPPLSKVPLQQNFQDNQFHGKWYVVGLAGNEVLREDKDPMKMWATIYELKEDKSYNVTIVMSLAKKCEYLFQTFVPGSQPGEFTLGDIKSSPGRTSGLVRVVSTNYNQHAMVFFKVVWQNREVFWITLYGRTKELTSGLKENFIRFSKSLGLPENHIVFPVPIDQCIDG
notes: as for B1
Turning to B6, the binding result in assay [3] was “binds”.

B7: lipocalin mutein of SEQ ID NO: 11 (designed binder)
chain: QDSTSDLIPAPPLSKVPLQQNFQDNQFHGKWYVVGLAGNEILREDKDPMKMWATIYELKEDKSYNVTIVMFLAKKCEYLFQTFVPGSQPGEFTLGDIKSSPGRTSGLVRVVSTNYNQHAMVFFKVVWQNREVFWITLYGRTKELTSGLKENFIRFSKSLGLPENHIVFPVPIDQCIDG
notes: as for B1
Turning to B7, in assay [3], the binding result was “binds”.

B8: lipocalin mutein of SEQ ID NO: 4 (designed binder)
chain: QDSTSDLIPAPPLSKVPLQQNFQDNQFHGKWYVVGVAGNEMLREDKDPLKMLATIYELKEDKSYNVTRVMFEYKKCVYLIETFVPGSQPGEFTLGTIKSVPGLTSGLVRVVSTNYNQHAMVFFKRVWQNREVFWITLYGRTKELTSELKENFIRFSKSLGLPENHIVFPVPIDQCIDG
notes: as for B1
On to B8, for which the binding result in assay [1] is reported as “binds”.

B9: lipocalin mutein of SEQ ID NO: 6 (designed binder)
chain: QDSTSDLIPAPPLSKVPLQQNFQDNQFHGKWYVVGLAGNEILREDKDPLKMWATIYELKEDKSYNVTRVQFGEKKCGYGIETFVPGSQPGEFTLGSIKSVPGGTSRLVRVVSTNYNQHAMVFFKFVWQNREVFWITLYGRTKELTSELKENFIRFSKSLGLPENHIVFPVPIDQCIDG
notes: as for B1
Take B9: the binding result in assay [1] was “binds”.

B10: lipocalin mutein of SEQ ID NO: 10 (designed binder)
chain: QDSTSDLIPAPPLSKVPLQQNFQDNQFHGKWYVVGLAGNEILREDKDPMKMWATIYELKEDRSYNVTIVMFLAKKCEYLFQTFVPGSQPGEFTLGDIKSSPGRTSGLVRVVSTNYNQHAMVFFKVVWQNREVFWITLYGRTKELTPELKENFIRFSKSLGLPENHIVFPVPIDQCIDGF
notes: as for B1
Turning to B10, the binding result in assay [3] is “binds”.

B11: lipocalin mutein of SEQ ID NO: 5 (designed binder)
chain: QDSTSDLIPAPPLSKVPLQQNFQDNQFHGKWYVVGAAGNSLLREDKDPMKMWATIYELKEDKSYNVTRVNFGGKKCSYLIETFVPGSQPGEFTLGSIKSRPGATSVLVRVVSTNYNQHAMVFFKLVTQNREVFWITLYGRTKELTSELKENFIRFSKSLGLPENHIVFPVPIDQCIDG
notes: as for B1
For the molecule B11, the binding result in assay [1] is “binds”.

B12: lipocalin mutein of SEQ ID NO: 2 (designed binder)
chain: QDSTSDLIPAPPLSKVPLQQNFQDNQFHGKWYVVGTAGNSILREDKDPQKMWATIYELKEDKSYNVTRVFFEGKKCRYVIETFVPGSQPGEFTLGKIKSAPGGTSILVRVVSTNYNQHAMVFFKVVWQNRELFWITLYGRTKELTSELKENFIRFSKSLGLPENHIVFPVPIDQCIDG
notes: as for B1
With B12, the binding result in assay [1] is listed as “binds”.

The values are drawn from patent US20150291675A1 (published 2015).
